From publication PMC8239744, “Mutations in myosin S2 alter cardiac myosin-binding protein-C interaction in hypertrophic cardiomyopathy in a phosphorylation-dependent manner” (The Journal of Biological Chemistry, 2021)
Residue numbers refer to the chain shown, from its start. Names and notes keep the numbering of the source.

B1: human recombinant proximal S2 WT protein (hS2^Wt) (domain or fragment, UniProt P12883 838-963, looked up)
chain: PLLKSAEREKEMASMKEEFTRLKEALEKSEARRKELEEKMVSLLQEKNDLQLQVQAEQDNLADAEERCDQLIKNKIQLEAKVKEMNERLEDEEEMNAELTAKKRKLEDECSELKRDIDDLELTLAK
notes: pET28a+ vector; also called WT hS2; human cardiac myosin S2
B2: human recombinant proximal S2 protein with R870H mutation (hS2^R870H) (domain or fragment, UniProt P12883 838-963, looked up)
chain: B1 chain with R33H
notes: human β-myosin heavy chain (MYH7), proximal S2, residues 838-963, with the HCM-causing mutation R870H; mutation found in HCM patients, introduced by site-directed mutagenesis; coiled coil in low-salt buffer by CD
B3: human recombinant proximal S2 protein with E924K mutation (hS2^E924K) (domain or fragment, UniProt P12883 838-963, looked up)
chain: B1 chain with E87K
notes: human β-myosin heavy chain (MYH7), proximal S2, residues 838-963, with the HCM-causing mutation E924K; mutation found in HCM patients, introduced by site-directed mutagenesis; coiled coil in low-salt buffer by CD
B4: human recombinant proximal S2 protein with E930Δ mutation (hS2^E930Δ) (domain or fragment, UniProt P12883 838-963, looked up)
chain: PLLKSAEREKEMASMKEEFTRLKEALEKSEARRKELEEKMVSLLQEKNDLQLQVQAEQDNLADAEERCDQLIKNKIQLEAKVKEMNERLEDEEMNAELTAKKRKLEDECSELKRDIDDLELTLAK
notes: human β-myosin heavy chain (MYH7), proximal S2, residues 838-963, with the HCM-causing deletion of E930; mutation found in HCM patients, introduced by site-directed mutagenesis; coiled coil in low-salt buffer by CD

Assays:
[1] = molecular target: human β-myosin heavy chain, proximal S2 (hS2) proximal S2, 838-963 (UniProt P12883); experiment: solid-phase binding assay (SPBA); settings: sites S273,S282,S302
[2] = molecular target: human C0-C2 region of cardiac myosin-binding protein-C (hC0-C2) (human) (UniProt Q14896); experiment: ITC; 350 μM hS2 titrated into 20 μM hC0-C2 (with or without PKA phosphorylation) in PBS at 20 °C; MicroCal VP-ITC; 25 injections of 10 μl at 180 s; four-parameter logistic fit; Kd calculated from the reciprocal of the slope
[3] = molecular target: PKA-phosphorylated human C0-C2 (hC0-C2p) (human) (UniProt Q14896); experiment: solid-phase binding assay (SPBA); 20 μM C0-C2 (bait) adsorbed onto microtiter plates overnight at 4 °C; 0-20 μM recombinant myosin S2 (prey) added; bound S2 detected with polyclonal anti-S2 antibody and Alexa Fluor 568 secondary antibody; intensity normalised to that at maximal S2; one-phase association fit for Bmax and Kd
[4] = molecular target: human C0-C2 region of cardiac myosin-binding protein-C (hC0-C2) (human) (UniProt Q14896); experiment: as above
[5] = molecular target: mouse recombinant C0-C2 protein, phospho-ablated (mC0-C2^AAA) (mouse) (UniProt O70468); experiment: as above
Sequence of mouse recombinant C0-C2 protein, phospho-ablated (mC0-C2^AAA) (mouse) (O70468 other isoform, or with tags, fused parts or gaps): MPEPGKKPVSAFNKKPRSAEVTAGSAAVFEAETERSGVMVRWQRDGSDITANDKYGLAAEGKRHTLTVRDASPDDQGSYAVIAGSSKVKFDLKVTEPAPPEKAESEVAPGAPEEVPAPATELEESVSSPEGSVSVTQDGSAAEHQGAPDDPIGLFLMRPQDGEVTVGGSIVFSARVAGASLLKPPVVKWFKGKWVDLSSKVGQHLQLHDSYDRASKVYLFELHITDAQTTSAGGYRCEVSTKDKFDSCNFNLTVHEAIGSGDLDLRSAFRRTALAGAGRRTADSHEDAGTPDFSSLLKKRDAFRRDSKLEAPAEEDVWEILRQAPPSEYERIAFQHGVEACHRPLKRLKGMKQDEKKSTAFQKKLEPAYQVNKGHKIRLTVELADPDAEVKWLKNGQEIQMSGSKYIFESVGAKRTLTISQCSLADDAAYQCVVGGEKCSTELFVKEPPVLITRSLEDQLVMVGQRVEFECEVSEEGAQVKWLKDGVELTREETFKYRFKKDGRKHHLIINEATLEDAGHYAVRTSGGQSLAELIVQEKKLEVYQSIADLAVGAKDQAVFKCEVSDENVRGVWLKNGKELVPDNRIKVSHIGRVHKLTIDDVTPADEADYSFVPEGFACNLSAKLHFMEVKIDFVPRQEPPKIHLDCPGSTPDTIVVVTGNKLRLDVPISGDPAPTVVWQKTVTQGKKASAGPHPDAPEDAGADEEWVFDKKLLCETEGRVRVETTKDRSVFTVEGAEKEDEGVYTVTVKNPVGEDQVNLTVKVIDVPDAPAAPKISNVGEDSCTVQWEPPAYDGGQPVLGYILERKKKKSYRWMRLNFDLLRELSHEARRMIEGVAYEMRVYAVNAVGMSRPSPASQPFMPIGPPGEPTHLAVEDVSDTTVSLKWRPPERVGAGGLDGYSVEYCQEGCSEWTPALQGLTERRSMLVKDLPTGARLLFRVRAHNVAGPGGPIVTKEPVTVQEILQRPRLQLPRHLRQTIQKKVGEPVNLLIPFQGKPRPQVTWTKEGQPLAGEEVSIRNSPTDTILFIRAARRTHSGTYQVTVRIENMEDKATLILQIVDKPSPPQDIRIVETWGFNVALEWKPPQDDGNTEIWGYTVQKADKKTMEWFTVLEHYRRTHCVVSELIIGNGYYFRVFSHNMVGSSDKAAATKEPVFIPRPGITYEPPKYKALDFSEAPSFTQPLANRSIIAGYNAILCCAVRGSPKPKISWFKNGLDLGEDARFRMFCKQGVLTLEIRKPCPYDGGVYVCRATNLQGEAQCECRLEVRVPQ

[6] = molecular target: mouse recombinant C0-C2 protein, phospho-mimetic (mC0-C2^DDD) (mouse) (UniProt O70468); experiment: as above
Sequence of mouse recombinant C0-C2 protein, phospho-mimetic (mC0-C2^DDD) (mouse) (O70468 other isoform, or with tags, fused parts or gaps): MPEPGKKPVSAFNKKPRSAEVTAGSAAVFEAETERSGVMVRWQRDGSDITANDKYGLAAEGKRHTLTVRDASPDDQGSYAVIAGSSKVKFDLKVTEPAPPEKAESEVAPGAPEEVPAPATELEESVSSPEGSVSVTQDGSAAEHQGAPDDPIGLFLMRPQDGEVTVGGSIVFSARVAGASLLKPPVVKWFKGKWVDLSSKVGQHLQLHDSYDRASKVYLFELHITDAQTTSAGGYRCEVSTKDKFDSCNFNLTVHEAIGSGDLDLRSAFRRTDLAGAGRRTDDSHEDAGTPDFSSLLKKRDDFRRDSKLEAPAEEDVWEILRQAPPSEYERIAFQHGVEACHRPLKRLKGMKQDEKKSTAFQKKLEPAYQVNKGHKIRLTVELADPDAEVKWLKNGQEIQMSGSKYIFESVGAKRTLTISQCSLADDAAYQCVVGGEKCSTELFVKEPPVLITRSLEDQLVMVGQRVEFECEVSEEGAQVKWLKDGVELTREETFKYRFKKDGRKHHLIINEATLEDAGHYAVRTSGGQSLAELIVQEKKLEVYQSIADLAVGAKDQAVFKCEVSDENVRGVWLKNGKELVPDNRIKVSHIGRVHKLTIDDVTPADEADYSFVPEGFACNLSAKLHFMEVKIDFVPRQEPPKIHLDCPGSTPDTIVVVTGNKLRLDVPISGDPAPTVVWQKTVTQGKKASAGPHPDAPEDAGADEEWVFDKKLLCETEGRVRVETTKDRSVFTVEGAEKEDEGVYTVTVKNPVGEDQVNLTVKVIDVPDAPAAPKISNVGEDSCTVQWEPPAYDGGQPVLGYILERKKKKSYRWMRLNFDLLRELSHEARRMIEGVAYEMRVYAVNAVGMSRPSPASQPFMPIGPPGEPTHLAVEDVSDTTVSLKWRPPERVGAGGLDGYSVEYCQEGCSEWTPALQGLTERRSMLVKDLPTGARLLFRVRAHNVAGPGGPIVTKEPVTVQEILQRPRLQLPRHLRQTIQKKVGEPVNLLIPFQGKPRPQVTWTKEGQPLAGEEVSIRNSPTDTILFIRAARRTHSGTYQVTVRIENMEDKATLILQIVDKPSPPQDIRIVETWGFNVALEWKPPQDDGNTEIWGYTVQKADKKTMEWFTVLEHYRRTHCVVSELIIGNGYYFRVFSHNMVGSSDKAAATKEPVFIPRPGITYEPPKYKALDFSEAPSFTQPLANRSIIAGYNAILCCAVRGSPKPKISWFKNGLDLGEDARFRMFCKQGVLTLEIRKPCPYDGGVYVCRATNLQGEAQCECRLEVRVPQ

[7] = molecular target: mouse recombinant C0-C2 protein, WT (mC0-C2^Wt) (mouse, UniProt O70468 1-448); experiment: as above; settings: both partners purified
Sequence of mouse recombinant C0-C2 protein, WT (mC0-C2^Wt) (O70468 1-448): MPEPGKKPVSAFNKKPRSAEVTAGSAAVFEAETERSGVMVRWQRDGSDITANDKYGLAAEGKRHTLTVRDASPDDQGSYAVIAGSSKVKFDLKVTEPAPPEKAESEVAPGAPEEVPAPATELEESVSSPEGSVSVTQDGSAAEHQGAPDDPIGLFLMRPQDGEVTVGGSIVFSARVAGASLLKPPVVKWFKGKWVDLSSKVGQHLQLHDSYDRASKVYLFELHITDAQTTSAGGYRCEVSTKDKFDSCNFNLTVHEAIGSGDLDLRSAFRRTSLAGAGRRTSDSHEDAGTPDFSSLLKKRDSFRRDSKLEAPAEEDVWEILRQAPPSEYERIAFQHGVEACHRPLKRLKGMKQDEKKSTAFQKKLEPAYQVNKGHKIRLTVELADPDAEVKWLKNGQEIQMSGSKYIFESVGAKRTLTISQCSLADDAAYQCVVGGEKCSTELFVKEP

[8] = molecular target: PKA-phosphorylated human C0-C2 (hC0-C2p) (human) (UniProt Q14896); experiment: ITC; 350 μM hS2 titrated into 20 μM hC0-C2 (with or without PKA phosphorylation) in PBS at 20 °C; MicroCal VP-ITC; 25 injections of 10 μl at 180 s; four-parameter logistic fit; Kd calculated from the reciprocal of the slope

Row | Molecule | other: Bmax ([1]; reference: mC0-C2 AAA) | other: Bmax ([1]; reference: mC0-C2 wild type) | Kd [2] | stoichiometry N [2] | Kd [3] | stoichiometry (η) based on Bmax, hC0-C2p to hS2^Wt compared with hC0-C2 to hS2^WT [3] | Kd [4] | Kd [5] | Kd [6] | Kd [7] | Kd [8] | stoichiometry N [8] | stoichiometry (η) based on Bmax, hC0-C2p to hS2 mutant [3] | stoichiometry (η) based on Bmax, hC0-C2 to hS2 mutant compared with hS2^WT [4]
1 | mouse cardiac myosin-binding protein-C (cMyBP-C), mC0-C2 C0-C2 (from UniProt O70468) mC0-C2 DDD | weaker; reference 0.95 ± 0.04 | weaker; reference 1.02 ± 0.04 |  |  |  |  |  |  |  |  |  |  |  | 
2 | B1 |  |  | 4710 nM | 1.08 | 7350 nM | 1.26 | 5040 nM | 1810 nM | 2020 nM | 1890 nM |  |  |  | 
3 | B2 |  |  | 19000 nM | 2.53 | 1260 nM |  | 6290 nM | 1510 nM | 790 nM | 1640 nM | 11000 nM | 1.07 | 1.17 | 1.24
4 | B3 |  |  | 30500 nM |  | 830 nM |  | 4300 nM | 1480 nM | 740 nM | 1510 nM | 16500 nM | 2.57 | 1.21 | 1.21
5 | B4 |  |  | 42300 nM |  | 970 nM |  | 6670 nM | 1220 nM | 880 nM | 1320 nM | 8570 nM | 0.35 | 1.24 | 1.23
